The text below walks through data of US20030092035A1 (CALIFORNIA INSTITUTE OF TECHNOLOGY, published 2003).

Ends that are not written are not given here.

One experiment concerns the target T1, MRGA1-GFP fusion protein (mouse, UniProt Q91WW5 1-304).
T1 sequence: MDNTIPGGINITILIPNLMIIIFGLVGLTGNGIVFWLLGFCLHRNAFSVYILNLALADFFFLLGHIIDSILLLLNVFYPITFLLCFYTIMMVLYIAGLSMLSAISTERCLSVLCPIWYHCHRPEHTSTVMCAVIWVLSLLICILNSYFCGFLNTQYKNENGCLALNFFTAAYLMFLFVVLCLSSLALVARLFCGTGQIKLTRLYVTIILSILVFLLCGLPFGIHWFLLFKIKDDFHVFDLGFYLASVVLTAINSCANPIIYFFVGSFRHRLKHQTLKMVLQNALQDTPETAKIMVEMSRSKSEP
Description: cell-based or functional assay.

Experiment [1] deals with T2, MRGA4-GFP fusion protein (mouse) (UniProt Q91WW2).
T2 sequence: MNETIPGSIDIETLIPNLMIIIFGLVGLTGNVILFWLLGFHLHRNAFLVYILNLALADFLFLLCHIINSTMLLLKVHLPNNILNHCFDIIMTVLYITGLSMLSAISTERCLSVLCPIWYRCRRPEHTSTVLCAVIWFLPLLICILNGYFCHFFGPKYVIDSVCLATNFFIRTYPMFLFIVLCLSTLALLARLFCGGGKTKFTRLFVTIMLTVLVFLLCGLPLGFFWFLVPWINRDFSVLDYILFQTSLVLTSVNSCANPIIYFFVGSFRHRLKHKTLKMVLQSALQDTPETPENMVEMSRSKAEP
Description: cell-based or functional assay.

With ACTH (peptide), the values for the EC50, Ca2+ dose-response in HEK-Galpha15 cells (in the experiment with MRGA1-GFP fusion protein; in experiment [1]) were 60 nM and 200 nM, respectively. Regarding NPFF (peptide), the EC50, Ca2+ dose-response in HEK-Galpha15 cells with MRGA1-GFP fusion protein amounted to 200 nM. Take AGEGLNSQFWSLAAPQRF-NH2 (peptide, UniProt O15130 93-110, looked up, species assumed, ends and bridges not checked) [NPAF]: the EC50, Ca2+ dose-response in HEK-Galpha15 cells in experiment [1] was 60 nM. In the case of FLRF-NH2 [FLRFamide], the “EC50, Ca2+ dose-response in HEK-Galpha15 cells” value with MRGA1-GFP fusion protein was approximately 20 nM.
